One substance from patent EP4467153A1, “CONSTRAINED PEPTIDE INHIBITORS OF LRRK2-FADD INTERACTIONS” (University of Georgia Research Foundation, Inc., priority 2023, dated 2024) can be followed below.

“Also recorded” adds a separate entry of the source. Positions of bridges follow the written chain, without caps; N, C: chain ends. Non-standard residues stand in square brackets, D forms with d. Primed or numbered codes have the meaning given here. FAM = 5(6)-carboxyfluorescein label; S5 = C=CCCC[C@](C)(N)C(=O)O; PEG3′ = PEG3 spacer

The subject of data set [1] is primary cortical neurons. Description: Uptake of FAM-labeled peptide in primary cortical neurons (confocal imaging). As to conditions: neurons expressing G2019S-LRRK2, 1 µM. It is filed as cell-based, mouse.
The test system of data set [2] is primary cortical neurons expressing G2019S-LRRK2. The experiment in a line: Assessment of neuronal death (apoptotic nuclear features of transfected neurons). It counts as cell-based, mouse. As to conditions: 48hr treatment, vs vehicle. An excerpt:
Disruption of the LRRK2-FADD PPI is neuroprotective. It has been previously shown that over-expression of mutant LRRK2 (G2019S or other pathogenic mutations) in primary cortical neurons results in apoptotic death of the neurons (see Iaccarino C, Crosio C, Vitale C, Sanna G, Carri MT, Barone P (2007) Apoptotic mechanisms in mutant LRRK2-mediated cell death. Hum Mol Genet 16, 1319-1326); and this example continues this area of identifying pathway(s) underlying cell-autonomous neuronal death in models of LRRK2-PD. […] Disruption of this interaction by dominant negative fragments of both FADD and LRRK2, or by deletion of the predicted FADD-binding domain within LRRK2, is neuroprotective against over-expression of mutant LRRK2. To determine whether FARMS could effectively disrupt the apoptotic death of primary neurons induced by pathogenic LRRK2, mouse embryonic cortical neurons were transiently transfected with G2019S-LRRK2 and increasing concentrations of the FARMS peptide were added. In cultures of neurons expressing G2019S-LRRK2, apoptotic Flag-positive neurons with characteristic fragmented and condensed nuclear apoptotic features, were observed as has been reported previously. […] A third neuron is visible within this field (with a condensed nucleus), however it is not expressing Flag-LRRK2, so would not be included in the assessment of neuronal death. the dose response of neuroprotection of FARMS was determined by counting the percentage of transfected neurons (stained with anti-Flag antibodies).
Assessment of Neuronal Death. […] Cells were centrifuged and counted and plated on poly-D-lysine coated glass coverslips at a density of 150,000/cm^2 in BrainPhys neuronal culture medium (StemCell Technologies) supplemented with SM1 Neuronal Supplement (StemCell Technologies), L-glutamine (0.5 mM) and […]. […] For quantification of apoptotic neuronal profiles, we used the approach described by Antoniou and colleagues. Briefly, individual Flag-positive neurons were assessed by a research blinded to the experimental conditions.

In data set [3] the target is T1, G2019S-LRRK2 (Homo sapiens, UniProt Q5S007, G2019S).
T1 construct: expressed in transfected cells; host or cells: HEK293T
Description: LRRK2 kinase function in HEK293T cells co-transfected with G2019S-LRRK2 and Flag-Rab10 (western blot). It counts as cell-based. As to conditions: G2019S-LRRK2 + Rab10, peptide at indicated concentrations, 24hr. On the procedure:
Since the peptides were designed to block LRRK2 from interacting with FADD, they should not have any effect on the catalytic kinase activity of LRRK2. To determine whether the PPI-disrupting FARMS peptide alters LRRK2 kinase activity in cells, HEK293T cells were co-transfected with WT or G019S-LRRK2 together with Rab10. Cells over-expressing mutant LRRK2 and human WT RablO were treated with FARMS and the cell extracts were probed for multiple indices of LRRK2 kinase activity including phosphorylated Rab10 and pS1292-LRRK2.
Assessment of LRRK2 kinase function. To determine whether peptides targeting the LRRK2-FADD PPI could also alter kinase function, LRRK2 activity was assessed in a cellular setting, through the phosphorylation of an endogenous substrate (pT73-Rab10), as well as auto-phosphorylation (pS1292-LRRK2). […] Parallel cultures were transfected with only WT or R1441C-LRRK2; and endogenous levels of phosphorylated RablO were assessed. Following 72hr of total expression, the cells were washed in cold PBS and collected. Cell lysis was performed using the following buffer: 50mM Tris HCl, pH 7.5; 1mM EGTA; 0.27 M sucrose; 1% Triton X-100; supplemented with protease and phosphatase inhibitor cocktails, and cell extracts stored at -80°C until use. […] For quantification, the band intensities for phosphorylated Rab 10 or LRRK2 were normalized to total expression of the respective protein.
For orientation: In western blotting, separated proteins are transferred to a membrane and probed.

Data set [4] deals with T2, R1441C-LRRK2 (Homo sapiens, UniProt Q5S007, R1441C).
T2 construct: expressed in transfected cells; host or cells: HEK293T
Description: LRRK2 kinase function in HEK293T cells over-expressing R1441C-LRRK2, endogenous Rab10 (western blot). It counts as cell-based. As to conditions: increasing doses of peptide. On the procedure:
Assessment of LRRK2 kinase function. To determine whether peptides targeting the LRRK2-FADD PPI could also alter kinase function, LRRK2 activity was assessed in a cellular setting, through the phosphorylation of an endogenous substrate (pT73-Rab10), as well as auto-phosphorylation (pS1292-LRRK2). […] Parallel cultures were transfected with only WT or R1441C-LRRK2; and endogenous levels of phosphorylated RablO were assessed. Following 72hr of total expression, the cells were washed in cold PBS and collected. Cell lysis was performed using the following buffer: 50mM Tris HCl, pH 7.5; 1mM EGTA; 0.27 M sucrose; 1% Triton X-100; supplemented with protease and phosphatase inhibitor cocktails, and cell extracts stored at -80°C until use. The extracts were separated by SDS-PAGE and proteins transferred to nitrocellulose membranes, which were probed for total/pS1292-LRRK2, total/pT73-Rab10, or β-actin. For quantification, the band intensities for phosphorylated Rab 10 or LRRK2 were normalized to total expression of the respective protein.

T1 sequence (Q5S007 whole entry G2019S): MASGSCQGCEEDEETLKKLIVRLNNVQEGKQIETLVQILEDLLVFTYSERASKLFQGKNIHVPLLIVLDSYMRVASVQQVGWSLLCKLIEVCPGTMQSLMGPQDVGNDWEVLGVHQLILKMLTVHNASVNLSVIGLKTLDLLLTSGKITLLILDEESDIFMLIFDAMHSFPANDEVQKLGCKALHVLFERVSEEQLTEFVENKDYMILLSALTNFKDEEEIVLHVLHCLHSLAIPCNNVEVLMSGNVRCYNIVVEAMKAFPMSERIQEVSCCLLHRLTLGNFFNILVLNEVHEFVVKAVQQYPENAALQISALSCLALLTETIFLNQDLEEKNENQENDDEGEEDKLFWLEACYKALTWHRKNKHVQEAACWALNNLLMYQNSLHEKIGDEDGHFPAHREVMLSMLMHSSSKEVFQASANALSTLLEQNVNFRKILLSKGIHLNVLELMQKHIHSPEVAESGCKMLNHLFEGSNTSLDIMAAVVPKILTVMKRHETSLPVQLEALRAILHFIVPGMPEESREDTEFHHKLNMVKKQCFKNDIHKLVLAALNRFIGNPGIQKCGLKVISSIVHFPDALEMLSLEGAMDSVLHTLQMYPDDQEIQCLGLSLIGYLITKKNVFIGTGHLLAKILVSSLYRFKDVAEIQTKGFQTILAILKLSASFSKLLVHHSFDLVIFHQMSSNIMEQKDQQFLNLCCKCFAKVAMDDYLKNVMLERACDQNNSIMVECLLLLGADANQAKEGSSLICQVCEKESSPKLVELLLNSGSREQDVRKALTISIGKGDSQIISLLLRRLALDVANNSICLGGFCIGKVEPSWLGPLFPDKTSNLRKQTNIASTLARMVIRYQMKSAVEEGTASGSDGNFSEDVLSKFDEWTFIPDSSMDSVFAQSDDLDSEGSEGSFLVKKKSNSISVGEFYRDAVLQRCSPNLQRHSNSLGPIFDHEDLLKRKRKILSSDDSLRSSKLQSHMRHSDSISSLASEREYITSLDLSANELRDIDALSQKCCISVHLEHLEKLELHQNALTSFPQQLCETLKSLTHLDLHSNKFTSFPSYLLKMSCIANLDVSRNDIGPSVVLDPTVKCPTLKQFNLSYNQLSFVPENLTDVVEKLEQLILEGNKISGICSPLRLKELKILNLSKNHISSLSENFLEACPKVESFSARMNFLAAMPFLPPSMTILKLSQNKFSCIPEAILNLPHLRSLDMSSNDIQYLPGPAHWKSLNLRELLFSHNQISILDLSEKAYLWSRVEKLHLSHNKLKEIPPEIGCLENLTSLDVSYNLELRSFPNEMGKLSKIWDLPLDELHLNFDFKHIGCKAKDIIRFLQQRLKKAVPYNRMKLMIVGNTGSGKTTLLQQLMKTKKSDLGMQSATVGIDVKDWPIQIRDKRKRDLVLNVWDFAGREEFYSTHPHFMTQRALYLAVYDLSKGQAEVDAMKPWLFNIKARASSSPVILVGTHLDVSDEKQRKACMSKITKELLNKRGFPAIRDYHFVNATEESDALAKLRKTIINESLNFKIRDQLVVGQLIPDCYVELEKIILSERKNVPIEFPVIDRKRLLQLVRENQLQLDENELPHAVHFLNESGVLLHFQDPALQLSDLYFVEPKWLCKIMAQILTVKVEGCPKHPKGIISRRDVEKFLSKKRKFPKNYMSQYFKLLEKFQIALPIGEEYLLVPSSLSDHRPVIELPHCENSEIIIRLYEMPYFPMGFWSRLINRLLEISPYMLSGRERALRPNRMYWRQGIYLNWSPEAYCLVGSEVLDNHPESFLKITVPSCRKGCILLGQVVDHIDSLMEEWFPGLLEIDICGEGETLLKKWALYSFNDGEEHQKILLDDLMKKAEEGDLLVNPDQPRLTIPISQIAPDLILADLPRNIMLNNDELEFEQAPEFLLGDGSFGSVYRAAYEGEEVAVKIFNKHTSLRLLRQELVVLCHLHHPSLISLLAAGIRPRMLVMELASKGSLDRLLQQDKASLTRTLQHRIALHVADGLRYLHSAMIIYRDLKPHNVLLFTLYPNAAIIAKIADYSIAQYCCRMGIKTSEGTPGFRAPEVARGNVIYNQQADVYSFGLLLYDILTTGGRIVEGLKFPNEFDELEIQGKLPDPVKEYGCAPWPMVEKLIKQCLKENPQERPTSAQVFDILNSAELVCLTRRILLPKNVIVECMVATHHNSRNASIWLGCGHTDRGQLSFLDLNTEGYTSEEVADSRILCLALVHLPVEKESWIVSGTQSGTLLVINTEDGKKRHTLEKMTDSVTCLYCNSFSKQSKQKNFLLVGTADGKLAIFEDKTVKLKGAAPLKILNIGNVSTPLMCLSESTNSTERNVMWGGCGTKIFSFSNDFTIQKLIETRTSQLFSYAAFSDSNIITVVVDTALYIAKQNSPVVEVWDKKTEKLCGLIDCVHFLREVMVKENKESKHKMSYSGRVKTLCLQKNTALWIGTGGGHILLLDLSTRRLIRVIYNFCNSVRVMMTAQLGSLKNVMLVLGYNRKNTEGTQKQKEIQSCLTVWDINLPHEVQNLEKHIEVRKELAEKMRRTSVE
T2 sequence (Q5S007 whole entry R1441C): as the sequence (Q5S007 whole entry G2019S) above, with R1441C, S2019G counted along it

Take “FARM5: FAM-labeled hydrocarbon-stapled FADD Armadillo domain peptide; mass fits SEQ ID NO. 6 KVADLVQEVQQAXDLQXRSK ({FAM-PEG3′}-KVADLVQEVQQA[S5]DLQ[S5]RSK-NH2; staple 13-17; also: FAM label, optionally 5(6)FAM-PEG3 on N-terminal lysine) [FAM-labeled hydrocarbon-stapled FADD Armadillo domain peptide; 6 …XDLQXRSK]”: in data set [1], the “fluorescent signal from the FAM peptide tag in neurons” value is “diffusely distributed throughout most neurons”. Further, the “percentage of neurons with apoptotic profiles” value is recorded as “unable to significantly block apoptotic neuronal death” in data set [2] (0.1 µM); “significantly reduced; also recorded: reduced evidence of chromatin condensation” in data set [2] (1 µM, listed as FARMS); “significantly reduced; also recorded: restored neuronal death to WT levels” in data set [2] (10 µM, listed as FARMS). Also, in data set [3], the “phosphorylation of over-expressed Rab10 (pT73)” value is on record as “unexpected increase”. Besides, the “auto-phosphorylation of LRRK2 at Ser1292 (pS1292-LRRK2)” value in data set [3] (listed as FARMS) is “any loss in phosphorylation of pS1292-LRRK2 or RablO could be detected; also recorded: un-affected”. Also, in data set [4], the “phosphorylation of endogenous Rab10 (pT73) by R1441C-LRRK2” value is reported as “un-affected”.
